In patent US8772235B2, “Compounds having peptides conjugated to bone targeting moieties and methods of making and using thereof” (The Governors of the University of Alberta, priority 2009, dated 2014):

Experiments:
[1] = Circular dichroism, secondary structure of sCT, sCT-SMCC and sCT-BP; type: physicochemical; settings: 20 mM acetate buffer pH 5.0, 400 μg/mL sCT or equivalent
Procedure: For a more detailed analysis of the influence of BP coupling on secondary structural confirmation of sCT, the circular dichroism (CD) spectrum of sCT, sCT-SMCC and sCT-BP was measured in the 20 mM acetate buffer pH 5.0. CD spectra were obtained with a ConvCD spectrophotometer instrument. Spectra were acquired over a wavelength range of 190 to 260 nm. The N2 flow rate was set at 5 l/min. The sample cuvette was cleaned with 20 mM Sodium Acetate buffer pH 5, and the spectra of test samples, which comprised of 400 μg/mL of sCT or equivalent the same buffer, were recorded with the corresponding buffer serving as blanks.

[2] = ELISA: anti-calcitonin antibody epitope and bone calcium binding on calcium phosphate coated plate (SMCC series); settings: 1 μg/well, OD 650 nm
Procedure: (§1) sCT or sCT analogues equivalent to 1 μg/well were added in Calcium Phosphate coated Osteoclast Activity Assay Substrate plate (OCT USA, Inc.) in duplicate and the binding of BP to the calcium phosphate was allowed for 1 hours in the presence of 100 μl 100 mM Sodium Phosphate buffer pH 7. Plates were then washed three times with the same buffer containing 0.05% v/v Tween 80 (PBST). To avoid nonspecific binding, the wells were incubated with 3% w/v Bovine Serum Albumin for 1 h at room temperature. After washings, the wells were incubated with 100 μl of 1:5000 diluted rabbit anti-salmon calcitonin primary antibodies (US Biologicals, USA) for 1 h at room temperature. The wells were then washed three times with PBST and the bound antibodies were then incubated with secondary antibody, 1:5000 diluted goat anti-rabbit IgG conjugated with horseradish peroxidase (GAM-HRPO), for 1 h at room temperature. After final washings, 100 μl of 3,3′,5,5′-tetramethylbenzidine (TMB substrate) was added to each well and incubated for 15 min at room temperature. The optical density (OD) was measured at 650 nm using an ELISA Vmax kinetic microplate reader (Molecular Devices Corp., California, and USA).

[3] = ELISA: anti-calcitonin antibody epitope binding on calcium phosphate coated plate (PEG series); settings: 1 μg/well, OD 650 nm
Procedure: as §1, with “with […]” for “with 100 μl”, “primary monoclonal” for “primary”, “were detected using” for “were then incubated with”, “peroxidase (GAM-HRPO)” for “peroxidase (GAM-HRPO),”

[4] = target: serum albumin (Homo sapiens, UniProt P02768); settings: systemically administered; cited from earlier work

detection in ELISA after binding to calcium phosphate plate [2]: not significantly detected
detection in ELISA after binding to calcium phosphate plate [3]: not significantly detected
Substance: Salmon calcitonin [sCT, reference compound]
secondary structure by CD spectrum [1]: random coil conformation
serum albumin bound in circulation [4]: 40%
